# B1: Basal cell adhesion molecule (Homo sapiens), P50895 (parent)
# chain: MEPPDAPAQARGAPRLLLLAVLLAAHPDAQAEVRLSVPPLVEVMRGKSVILDCTPTGTHDHYMLEWFLTDRSGARPRLASAEMQGSELQVTMHDTRGRSPPYQLDSQGRLVLAEAQVGDERDYVCVVRAGAAGTAEATARLNVFAKPEATEVSPNKGTLSVMEDSAQEIATCNSRNGNPAPKITWYRNGQRLEVPVEMNPEGYMTSRTVREASGLLSLTSTLYLRLRKDDRDASFHCAAHYSLPEGRHGRLDSPTFHLTLHYPTEHVQFWVGSPSTPAGWVREGDTVQLLCRGDGSPSPEYTLFRLQDEQEEVLNVNLEGNLTLEGVTRGQSGTYGCRVEDYDAADDVQLSKTLELRVAYLDPLELSEGKVLSLPLNSSAVVNCSVHGLPTPALRWTKDSTPLGDGPMLSLSSITFDSNGTYVCEASLPTVPVLSRTQNFTLLVQGSPELKTAEIEPKADGSWREGDEVTLICSARGHPDPKLSWSQLGGSPAEPIPGRQGWVSSSLTLKVTSALSRDGISCEASNPHGNKRHVFHFGTVSPQTSQAGVAVMAVAVSVGLLLLVVAVFYCVRRKGGPCCRQRREKGAPPPGEPGLSHSGSEQPEQTGLLMGGASGGARGGSGGFGDEC
# partner: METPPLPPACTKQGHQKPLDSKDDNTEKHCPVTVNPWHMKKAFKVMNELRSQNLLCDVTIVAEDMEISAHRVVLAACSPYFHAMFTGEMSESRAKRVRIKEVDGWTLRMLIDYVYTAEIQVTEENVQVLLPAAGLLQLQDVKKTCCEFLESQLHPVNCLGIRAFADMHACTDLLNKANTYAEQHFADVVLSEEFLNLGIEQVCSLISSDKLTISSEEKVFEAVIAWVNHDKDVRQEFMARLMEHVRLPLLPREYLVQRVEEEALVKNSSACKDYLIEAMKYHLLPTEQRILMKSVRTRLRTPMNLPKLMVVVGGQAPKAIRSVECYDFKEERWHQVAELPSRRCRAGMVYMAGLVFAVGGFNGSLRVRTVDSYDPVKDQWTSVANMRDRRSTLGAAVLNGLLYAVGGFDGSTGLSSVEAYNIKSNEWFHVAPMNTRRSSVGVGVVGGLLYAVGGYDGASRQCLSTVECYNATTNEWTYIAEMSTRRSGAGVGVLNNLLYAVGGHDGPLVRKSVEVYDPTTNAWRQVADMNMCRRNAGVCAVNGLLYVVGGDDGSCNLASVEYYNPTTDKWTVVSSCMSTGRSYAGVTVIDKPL
# B2: Glycophorin-B (Homo sapiens), P06028 (parent)
# chain: MYGKIIFVLLLSEIVSISALSTTEVAMHTSTSSSVTKSYISSQTNGETGQLVHRFTVPAPVVIILIILCVMAGIIGTILLISYSIRRLIKA
# B3: U4/U6 small nuclear ribonucleoprotein Prp31 (Homo sapiens), Q8WWY3 (parent)
# chain: MSLADELLADLEEAAEEEEGGSYGEEEEEPAIEDVQEETQLDLSGDSVKTIAKLWDSKMFAEIMMKIEEYISKQAKASEVMGPVEAAPEYRVIVDANNLTVEIENELNIIHKFIRDKYSKRFPELESLVPNALDYIRTVKELGNSLDKCKNNENLQQILTNATIMVVSVTASTTQGQQLSEEELERLEEACDMALELNASKHRIYEYVESRMSFIAPNLSIIIGASTAAKIMGVAGGLTNLSKMPACNIMLLGAQRKTLSGFSSTSVLPHTGYIYHSDIVQSLPPDLRRKAARLVAAKCTLAARVDSFHESTEGKVGYELKDEIERKFDKWQEPPPVKQVKPLPAPLDGQRKKRGGRRYRKMKERLGLTEIRKQANRMSFGEIEEDAYQEDLGFSLGHLGKSGSGRVRQTQVNEATKARISKTLQRTLQKQSVVYGGKSTIRDRSSGTASSVAFTPLQGLEIVNPQAAEKKVAEANQKYFSSMAEFLKVKGEKSGLMST
# partner: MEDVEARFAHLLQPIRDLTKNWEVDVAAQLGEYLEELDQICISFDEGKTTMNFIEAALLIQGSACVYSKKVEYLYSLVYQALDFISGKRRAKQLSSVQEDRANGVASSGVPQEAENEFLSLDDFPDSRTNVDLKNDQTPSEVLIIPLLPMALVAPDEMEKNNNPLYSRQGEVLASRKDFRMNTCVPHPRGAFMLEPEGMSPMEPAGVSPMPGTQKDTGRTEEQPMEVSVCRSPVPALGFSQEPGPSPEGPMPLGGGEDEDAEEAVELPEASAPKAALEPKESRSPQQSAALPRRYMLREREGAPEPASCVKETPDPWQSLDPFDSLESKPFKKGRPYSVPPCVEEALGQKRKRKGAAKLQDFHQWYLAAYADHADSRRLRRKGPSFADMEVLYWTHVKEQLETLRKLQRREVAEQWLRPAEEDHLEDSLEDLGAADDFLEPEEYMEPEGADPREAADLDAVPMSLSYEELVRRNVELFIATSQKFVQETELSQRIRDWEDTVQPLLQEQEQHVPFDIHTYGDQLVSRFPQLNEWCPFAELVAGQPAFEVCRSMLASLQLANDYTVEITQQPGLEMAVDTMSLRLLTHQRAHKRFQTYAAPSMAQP
# B4: Adiponectin (Homo sapiens), Q15848 (parent)
# chain: MLLLGAVLLLLALPGHDQETTTQGPGVLLPLPKGACTGWMAGIPGHPGHNGAPGRDGRDGTPGEKGEKGDPGLIGPKGDIGETGVPGAEGPRGFPGIQGRKGEPGEGAYVYRSAFSVGLETYVTIPNMPIRFTKIFYNQQNHYDGSTGKFHCNIPGLYYFAYHITVYMKDVKVSLFKKDKAMLFTYDQYQENNVDQASGSVLLHLEVGDQVWLQVYGEGERNGLYADNDNDSTFTGFLLYHDTN
# B5: Forkhead box protein P3 (Homo sapiens), Q9BZS1 (parent)
# chain: MPNPRPGKPSAPSLALGPSPGASPSWRAAPKASDLLGARGPGGTFQGRDLRGGAHASSSSLNPMPPSQLQLPTLPLVMVAPSGARLGPLPHLQALLQDRPHFMHQLSTVDAHARTPVLQVHPLESPAMISLTPPTTATGVFSLKARPGLPPGINVASLEWVSREPALLCTFPNPSAPRKDSTLSAVPQSSYPLLANGVCKWPGCEKVFEEPEDFLKHCQADHLLDEKGRAQCLLQREMVQSLEQQLVLEKEKLSAMQAHLAGKMALTKASSVASSDKGSCCIVAAGSQGPVVPAWSGPREAPDSLFAVRRHLWGSHGNSTFPEFLHNMDYFKFHNMRPPFTYATLIRWAILEAPEKQRTLNEIYHWFTRMFAFFRNHPATWKNAIRHNLSLHKCFVRVESEKGAVWTVDELEFRKKRSQRPSRCSNPTPGP
# B6: Hypoxanthine-guanine phosphoribosyltransferase (Homo sapiens), P00492 (parent)
# chain: MATRSPGVVISDDEPGYDLDLFCIPNHYAEDLERVFIPHGLIMDRTERLARDVMKEMGGHHIVALCVLKGGYKFFADLLDYIKALNRNSDRSIPMTVDFIRLKSYCNDQSTGDIKVIGGDDLSTLTGKNVLIVEDIIDTGKTMQTLLSLVRQYNPKMVKVASLLVKRTPRSVGYKPDFVGFEIPDKFVVGYALDYNEYFRDLNHVCVISETGKAKYKA
# partner: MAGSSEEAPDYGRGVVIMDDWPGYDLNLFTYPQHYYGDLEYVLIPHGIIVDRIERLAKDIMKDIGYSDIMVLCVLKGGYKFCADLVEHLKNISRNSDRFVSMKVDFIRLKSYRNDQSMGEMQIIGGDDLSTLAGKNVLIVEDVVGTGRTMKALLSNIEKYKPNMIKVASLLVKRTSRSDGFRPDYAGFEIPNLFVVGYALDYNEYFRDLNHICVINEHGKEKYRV
# B7: Elongation factor Ts, mitochondrial (Homo sapiens), P43897-2 (parent)
# chain: MSLLRSLRVFLVARTGSYPAGSLLRQSPQPRHTFYAGPRLSASASSKELLMKLRRKTGYSFVNCKKALETCGGDLKQAEIWLHKEAQKEGWSKAAKLQGRKTKEGLIGLLQEGNTTVLVEVNCETDFVSRNLKFQLLVQQVALGTMMHCQTLKDQPSAYSKVQWLTPVNLALWEAEAGGSLEGFLNSSELSGLPAGPDREGSLKDQLALAIGKLGENMILKRAAWVKVPSGFYVGSYVHGAMQSPSLHKLVLGKYGALVICETSEQKTNLEDVGRRLGQHVVGMAPLSVGSLDDEPGGEAETKMLSQPYLLDPSITLGQYVQPQGVSVVDFVRFECGEGEEAAETE
# B8: Multifunctional procollagen lysine hydroxylase and glycosyltransferase LH3 (Homo sapiens), O60568 (parent)
# chain: MTSSGPGPRFLLLLPLLLPPAASASDRPRGRDPVNPEKLLVITVATAETEGYLRFLRSAEFFNYTVRTLGLGEEWRGGDVARTVGGGQKVRWLKKEMEKYADREDMIIMFVDSYDVILAGSPTELLKKFVQSGSRLLFSAESFCWPEWGLAEQYPEVGTGKRFLNSGGFIGFATTIHQIVRQWKYKDDDDDQLFYTRLYLDPGLREKLSLNLDHKSRIFQNLNGALDEVVLKFDRNRVRIRNVAYDTLPIVVHGNGPTKLQLNYLGNYVPNGWTPEGGCGFCNQDRRTLPGGQPPPRVFLAVFVEQPTPFLPRFLQRLLLLDYPPDRVTLFLHNNEVFHEPHIADSWPQLQDHFSAVKLVGPEEALSPGEARDMAMDLCRQDPECEFYFSLDADAVLTNLQTLRILIEENRKVIAPMLSRHGKLWSNFWGALSPDEYYARSEDYVELVQRKRVGVWNVPYISQAYVIRGDTLRMELPQRDVFSGSDTDPDMAFCKSFRDKGIFLHLSNQHEFGRLLATSRYDTEHLHPDLWQIFDNPVDWKEQYIHENYSRALEGEGIVEQPCPDVYWFPLLSEQMCDELVAEMEHYGQWSGGRHEDSRLAGGYENVPTVDIHMKQVGYEDQWLQLLRTYVGPMTESLFPGYHTKARAVMNFVVRYRPDEQPSLRPHHDSSTFTLNVALNHKGLDYEGGGCRFLRYDCVISSPRKGWALLHPGRLTHYHEGLPTTWGTRYIMVSFVDP
# partner: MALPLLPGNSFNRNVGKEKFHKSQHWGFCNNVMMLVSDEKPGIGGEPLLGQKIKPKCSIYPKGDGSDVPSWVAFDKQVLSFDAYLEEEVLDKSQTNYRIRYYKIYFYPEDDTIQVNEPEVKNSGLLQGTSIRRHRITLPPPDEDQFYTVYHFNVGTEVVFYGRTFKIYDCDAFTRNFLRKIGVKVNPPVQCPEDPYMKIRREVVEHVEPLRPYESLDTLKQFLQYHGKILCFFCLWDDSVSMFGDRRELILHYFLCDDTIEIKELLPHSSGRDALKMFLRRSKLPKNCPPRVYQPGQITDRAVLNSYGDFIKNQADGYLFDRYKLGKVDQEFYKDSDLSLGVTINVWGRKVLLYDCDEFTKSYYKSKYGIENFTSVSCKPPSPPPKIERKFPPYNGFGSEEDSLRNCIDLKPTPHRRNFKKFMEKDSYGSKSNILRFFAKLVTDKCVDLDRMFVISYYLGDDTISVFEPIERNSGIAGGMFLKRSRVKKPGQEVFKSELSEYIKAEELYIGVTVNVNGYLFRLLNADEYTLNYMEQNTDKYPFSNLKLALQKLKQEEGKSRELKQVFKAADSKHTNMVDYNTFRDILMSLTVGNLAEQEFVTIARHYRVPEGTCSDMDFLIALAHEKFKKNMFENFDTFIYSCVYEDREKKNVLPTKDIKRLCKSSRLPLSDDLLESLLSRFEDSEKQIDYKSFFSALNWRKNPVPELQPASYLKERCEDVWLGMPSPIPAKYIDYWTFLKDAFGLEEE
# B9: U4/U6 small nuclear ribonucleoprotein Prp31 (Homo sapiens), Q8WWY3 (parent)
# chain: B3 chain
# partner: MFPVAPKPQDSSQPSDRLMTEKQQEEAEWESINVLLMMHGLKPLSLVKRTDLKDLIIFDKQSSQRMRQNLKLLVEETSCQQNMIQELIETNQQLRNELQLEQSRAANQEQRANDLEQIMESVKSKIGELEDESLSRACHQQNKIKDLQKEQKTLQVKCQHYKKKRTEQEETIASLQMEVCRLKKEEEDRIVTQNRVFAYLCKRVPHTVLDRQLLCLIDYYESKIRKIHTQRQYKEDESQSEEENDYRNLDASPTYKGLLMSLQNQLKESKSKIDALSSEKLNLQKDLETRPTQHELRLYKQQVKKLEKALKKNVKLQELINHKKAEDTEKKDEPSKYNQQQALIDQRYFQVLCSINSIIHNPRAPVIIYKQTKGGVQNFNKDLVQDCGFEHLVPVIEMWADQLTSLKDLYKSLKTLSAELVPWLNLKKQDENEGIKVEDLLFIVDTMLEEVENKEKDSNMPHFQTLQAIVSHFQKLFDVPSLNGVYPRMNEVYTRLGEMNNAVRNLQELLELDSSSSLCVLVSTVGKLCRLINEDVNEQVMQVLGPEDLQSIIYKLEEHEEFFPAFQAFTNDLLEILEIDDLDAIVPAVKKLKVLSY
# Variants of: B1
# Conditions: with klhl2_human KLHL2, O95198
row,effect of a mutation on the interaction,Variant
1,with no effect,S447L
2,with no effect,T539A
3,with no effect,R175Q
4,with no effect,R77H

# Variants of: B2
# Conditions: with ubql1_human UBQLN1, Q9UMX0
row,effect of a mutation on the interaction,Variant
1,with no effect,T48M

# Variants of: B3
# Conditions: with cndh2_human NCAPH2, Q6IBW4
row,effect of a mutation on the interaction,Variant
1,with no effect,L107V

# Variants of: B4
# Conditions: with bni3l_human BNIP3L
row,effect of a mutation on the interaction,Variant
1,with no effect,Y111H
2,with no effect,I164T

# Variants of: B4
# Conditions: with sgta_human SGTA
row,effect of a mutation on the interaction,Variant
1,with no effect,Y111H
2,with no effect,I164T

# Variants of: B5
# Conditions: with RBPMS
row,effect of a mutation on the interaction,Variant
1,disrupting interaction strength,I363V
2,disrupting interaction strength,Q70H
3,with no effect,P187L
4,with no effect,G52V

# Variants of: B5
# Conditions: with pr20e_human PRR20E
row,effect of a mutation on the interaction,Variant
1,disrupting interaction strength,I363V
2,disrupting interaction strength,Q70H
3,with no effect,P187L
4,with no effect,G52V

# Variants of: B6
# Conditions: with prdc1_human PRTFDC1, Q9NRG1
row,effect of a mutation on the interaction,Variant
1,disrupting interaction strength,D194H

# Variants of: B7
# Conditions: with pp12c_human PPP1R12C
row,effect of a mutation on the interaction,Variant
1,disrupting interaction strength,R333W

# Variants of: B8
# Conditions: with efhc2_human EFHC2, Q5JST6
row,effect of a mutation on the interaction,Variant
1,with no effect,N223S

# Variants of: B9
# Conditions: with cep70_human CEP70, Q8NHQ1
row,effect of a mutation on the interaction,Variant
1,with no effect,L107V

# — IntAct's records for PubMed 25910212
